Patent publication US20230257453A1 (PROVIVA THERAPEUTICS HONG KONG, published 2023)
Changes are numbered by the printed parent chain. Names may count otherwise.

T1: denatured human collagen type III (human, UniProt P02461 154-1221, limits assumed)
T1 construct: Bought human collagen III (ab7535, Abcam), denatured at 99 C for 15 minutes and then kept on ice for 5 minutes; also called denatured human collagen III
T1 sequence: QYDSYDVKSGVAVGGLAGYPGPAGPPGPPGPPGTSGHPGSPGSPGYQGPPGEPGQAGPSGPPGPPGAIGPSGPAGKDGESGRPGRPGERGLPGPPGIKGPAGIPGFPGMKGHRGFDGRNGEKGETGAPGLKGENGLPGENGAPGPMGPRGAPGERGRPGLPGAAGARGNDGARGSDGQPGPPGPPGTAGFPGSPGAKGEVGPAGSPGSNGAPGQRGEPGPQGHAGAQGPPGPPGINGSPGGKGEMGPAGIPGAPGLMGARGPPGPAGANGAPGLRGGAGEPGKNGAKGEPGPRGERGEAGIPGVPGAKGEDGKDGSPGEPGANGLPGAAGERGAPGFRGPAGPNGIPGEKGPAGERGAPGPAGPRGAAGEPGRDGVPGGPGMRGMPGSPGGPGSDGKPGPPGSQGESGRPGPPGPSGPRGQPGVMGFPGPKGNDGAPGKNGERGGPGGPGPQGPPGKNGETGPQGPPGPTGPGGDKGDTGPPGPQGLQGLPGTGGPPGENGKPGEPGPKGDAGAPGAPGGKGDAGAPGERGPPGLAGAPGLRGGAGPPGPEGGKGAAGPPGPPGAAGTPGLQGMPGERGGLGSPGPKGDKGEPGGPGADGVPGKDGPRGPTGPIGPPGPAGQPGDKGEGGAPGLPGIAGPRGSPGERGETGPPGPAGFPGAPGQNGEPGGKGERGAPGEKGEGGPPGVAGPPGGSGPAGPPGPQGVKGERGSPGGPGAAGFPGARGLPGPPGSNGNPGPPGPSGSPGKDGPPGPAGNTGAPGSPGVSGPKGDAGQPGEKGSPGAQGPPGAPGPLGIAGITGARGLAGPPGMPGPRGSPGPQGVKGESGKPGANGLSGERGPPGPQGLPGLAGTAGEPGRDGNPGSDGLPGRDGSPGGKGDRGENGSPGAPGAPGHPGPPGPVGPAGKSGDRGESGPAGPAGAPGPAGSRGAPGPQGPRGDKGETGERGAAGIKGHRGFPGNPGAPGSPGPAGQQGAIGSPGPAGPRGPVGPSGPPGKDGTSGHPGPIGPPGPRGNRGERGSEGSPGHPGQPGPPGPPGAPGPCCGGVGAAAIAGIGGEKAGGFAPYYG

B1: P27152798 (antibody, human IgG1, kappa, L234A L235A, V domains shown)
VH: QVTLKESGPALVKPTQTLTLTCTFSGFSLSTPGMGVWWIRQPPGKALEWLADIWWDDNKYTNPSLKSRLTISKDTSKNQVVLTMTNMDPVDTATYYCARRANYGNPYYAQDYWGQGTTVTVSS
VL: DIVMTQTPLSLPVTPGEPASISCRSSQSIVHSNANTYLEWYLQKPGQSPQLLIYKVSNRFSGVPDRFSGSGSGTDFTLKISRVEAEDVGVYYCFQGSHVPWTFGQGTKVEIKR
notes: also called VH chain D3 / VL chain B7A
B2: P27152716 (antibody, human IgG1, kappa, L234A L235A, V domains shown)
VH: B1 VH
VL: B1 VL with H31S, N33W, A34G
notes: produced by transient transfection in Expi293 cells and purified on MabSelect SuRe; also called VH chain D3 / VL chain D3
B3: P27122713 (antibody, human IgG1, kappa, L234A L235A, V domains shown)
VH: B1 VH with P32S, W37G, T61A
VL: B1 VL with A34G
notes: produced by transient transfection in Expi293 cells and purified on MabSelect SuRe; also called VH chain B7 / VL chain B7

Biological target: T1, denatured human collagen type III
Assay: ELISA, denatured collagen coated on plate, anti-human IgG peroxidase detection
Procedure: ELISA analysis. The binding activity and specificity of purified antibodies were determined by ELISA. Human collagens I (ab7533, Abcam), III (ab7535, Abcam), IV (ab7536, Abcam), an V (ab7537, Abcam), and mouse collagens I (NBP2-62423, NOVUS) and IV (3410-010-02, R&D) were used in ELISA analysis. “Denatured” collagen samples were prepared by incubation of collagens samples at 99° C. for 15 minutes followed by incubation on ice for 5 minutes Microtiter plates were coated with native or denatured collagen protein overnight at 4° C. The next day, plates were washed with PBS and blocked with 3% non-fat dry milk in PBS or 1% BSA. Serially diluted antibodies were added for binding to the coated antigen. Bound antibodies were detected with peroxidase-conjugated anti-human IgG secondary antibody (Jackson ImmunoResearch).

Binder	binding result
B1	binds
B2	binds
B3	binds
